Measurements: patent US5766897A, “Cysteine-pegylated proteins” (Incyte Pharmaceuticals, Inc., priority 1995, dated 1998)

Target: Thrombin (Homo sapiens, UniProt P00734)
Experiment: thrombin inhibition activity assay (D.4), specific activity
Type: biochemical
Conditions: for ACTIVITY, AFTER PEG MODIFICATION: after cysteine-PEGylation with Maleimido-PEG; for REL TO WT, BEFORE PEG MODIFICATION: activity relative to wild type PN-1; for REL TO ACTIVITY BEFORE PEG, AFTER PEG MODIFICATION: cysteine-PEGylated protein relative to same protein before PEGylation; for REL TO WT, AFTER PEG MODIFICATION: cysteine-PEGylated protein relative to wild type PN-1
Method: Refolded or soluble protein was tested for capacity to inhibit thrombin in a standard assay. Briefly, serial 2-fold dilutions of PN-1 variant were added to microtiter plate wells (50 μl/well), followed by 50 μl of a 30 μg/ml heparin solution, followed by 1 NIH unit of thrombin in 50 μl. These were allowed to incubate at 25° C. for 15 minutes. Residual thrombin activity was measured by the addition of 50 μl S-2238 (Kabi Pharmaceuticals) at 0.625 mg/ml. PN-1 variants were tested for their ability to inhibit urokinase using the substrate S-2444, plasmin using the substrate S-2390, tPA using the substrate S2288, Factor Xa using the substrate S-2222 or S-2765, kallikrein using the substrate S-2302, human neutrophil elastase using s-AAPV-pna (Sigma), cathepsin G using s-AAPF-pna (Sigma) in a similar manner, with or without the addition of heparin.
Each of the PN-1 site-directed mutant proteins, as well as wild type PN-1, were modified by cysteine-PEGylation using the protocol described in F.2. The activity of wild type PN-1, each of the PN-1 site-directed mutants, and the cysteine-PEGylated wild type and mutant proteins was determined using the assay described in D.4.

B1: PN-1 produced in insect cells: glycosylated PN-1 produced in insect cells using a baculovirus expression system (protein, UniProt P07093 20-398, looked up)
Glia-derived nexin: SHFNPLSLEELGSNTGIQVFNQIVKSRPHDNIVISPHGIASVLGMLQLGADGRTKKQLAMVMRYGVNGVGKILKKINKAIVSKKNKDIVTVANAVFVKNASEIEVPFVTRNKDVFQCEVRNVNFEDPASACDSINAWVKNETRDMIDNLLSPDLIDGVLTRLVLVNAVYFKGLWKSRFQPENTKKRTFVAADGKSYQVPMLAQLSVFRCGSTSAPNDLWYNFIELPYHGESISMLIALPTESSTPLSAIIPHISTKTIDSWMSIMVPKRVQVILPKFTAVAQTDLKEPLKVLGITDMFDSSKANFAKITTGSENLHVSHILQKAKIEVSEDGTKASAATTAILIARSSPPWFIVDRPFLFFIRHNPTGAVLFMGQINKP
modifications: insect cell glycosylated
notes: glycosylated PN-1 produced in insect cells using a baculovirus expression system
specific activity vs thrombin and association kinetics, including rate enhancement effect of heparin (compared with authentic PN-1): indistinguishable from authentic PN-1

B2: D192C (conjugate, UniProt P07093 20-398, looked up, variant D192C)
Glia-derived nexin: SHFNPLSLEELGSNTGIQVFNQIVKSRPHDNIVISPHGIASVLGMLQLGADGRTKKQLAMVMRYGVNGVGKILKKINKAIVSKKNKDIVTVANAVFVKNASEIEVPFVTRNKDVFQCEVRNVNFEDPASACDSINAWVKNETRDMIDNLLSPDLIDGVLTRLVLVNAVYFKGLWKSRFQPENTKKRTFVAACGKSYQVPMLAQLSVFRCGSTSAPNDLWYNFIELPYHGESISMLIALPTESSTPLSAIIPHISTKTIDSWMSIMVPKRVQVILPKFTAVAQTDLKEPLKVLGITDMFDSSKANFAKITTGSENLHVSHILQKAKIEVSEDGTKASAATTAILIARSSPPWFIVDRPFLFFIRHNPTGAVLFMGQINKP
modifications: PEG
ACTIVITY, AFTER PEG MODIFICATION: 0.91 NIH units of thrombin inhibited per μg PN1 (variant) | SPECIFIC ACTIVITY, BEFORE PEG MODIFICATION: 0.045 NIH units of thrombin inhibited per μg PN1 (variant) | REL TO WT, BEFORE PEG MODIFICATION: 0.091 | REL TO ACTIVITY BEFORE PEG, AFTER PEG MODIFICATION: 2 | REL TO WT, AFTER PEG MODIFICATION: 0.18

B3: D147C (conjugate, UniProt P07093 20-398, looked up, variant D147C)
Glia-derived nexin: SHFNPLSLEELGSNTGIQVFNQIVKSRPHDNIVISPHGIASVLGMLQLGADGRTKKQLAMVMRYGVNGVGKILKKINKAIVSKKNKDIVTVANAVFVKNASEIEVPFVTRNKDVFQCEVRNVNFEDPASACDSINAWVKNETRDMICNLLSPDLIDGVLTRLVLVNAVYFKGLWKSRFQPENTKKRTFVAADGKSYQVPMLAQLSVFRCGSTSAPNDLWYNFIELPYHGESISMLIALPTESSTPLSAIIPHISTKTIDSWMSIMVPKRVQVILPKFTAVAQTDLKEPLKVLGITDMFDSSKANFAKITTGSENLHVSHILQKAKIEVSEDGTKASAATTAILIARSSPPWFIVDRPFLFFIRHNPTGAVLFMGQINKP
modifications: PEG
ACTIVITY, AFTER PEG MODIFICATION: 0.125 NIH units of thrombin inhibited per μg PN1 (variant) | SPECIFIC ACTIVITY, BEFORE PEG MODIFICATION: 0.063 NIH units of thrombin inhibited per μg PN1 (variant) | REL TO WT, BEFORE PEG MODIFICATION: 0.125 | REL TO ACTIVITY BEFORE PEG, AFTER PEG MODIFICATION: 2 | REL TO WT, AFTER PEG MODIFICATION: 0.25

B4: E125C (conjugate, UniProt P07093 20-398, looked up, variant E125C)
Glia-derived nexin: SHFNPLSLEELGSNTGIQVFNQIVKSRPHDNIVISPHGIASVLGMLQLGADGRTKKQLAMVMRYGVNGVGKILKKINKAIVSKKNKDIVTVANAVFVKNASEIEVPFVTRNKDVFQCEVRNVNFCDPASACDSINAWVKNETRDMIDNLLSPDLIDGVLTRLVLVNAVYFKGLWKSRFQPENTKKRTFVAADGKSYQVPMLAQLSVFRCGSTSAPNDLWYNFIELPYHGESISMLIALPTESSTPLSAIIPHISTKTIDSWMSIMVPKRVQVILPKFTAVAQTDLKEPLKVLGITDMFDSSKANFAKITTGSENLHVSHILQKAKIEVSEDGTKASAATTAILIARSSPPWFIVDRPFLFFIRHNPTGAVLFMGQINKP
modifications: PEG
ACTIVITY, AFTER PEG MODIFICATION: 0.15 NIH units of thrombin inhibited per μg PN1 (variant) | SPECIFIC ACTIVITY, BEFORE PEG MODIFICATION: 0.095 NIH units of thrombin inhibited per μg PN1 (variant) | REL TO WT, BEFORE PEG MODIFICATION: 0.19 | REL TO ACTIVITY BEFORE PEG, AFTER PEG MODIFICATION: 1.57 | REL TO WT, AFTER PEG MODIFICATION: 0.3

B5: R63C (conjugate, UniProt P07093 20-398, looked up, variant R63C)
Glia-derived nexin: SHFNPLSLEELGSNTGIQVFNQIVKSRPHDNIVISPHGIASVLGMLQLGADGRTKKQLAMVMCYGVNGVGKILKKINKAIVSKKNKDIVTVANAVFVKNASEIEVPFVTRNKDVFQCEVRNVNFEDPASACDSINAWVKNETRDMIDNLLSPDLIDGVLTRLVLVNAVYFKGLWKSRFQPENTKKRTFVAADGKSYQVPMLAQLSVFRCGSTSAPNDLWYNFIELPYHGESISMLIALPTESSTPLSAIIPHISTKTIDSWMSIMVPKRVQVILPKFTAVAQTDLKEPLKVLGITDMFDSSKANFAKITTGSENLHVSHILQKAKIEVSEDGTKASAATTAILIARSSPPWFIVDRPFLFFIRHNPTGAVLFMGQINKP
modifications: PEG
ACTIVITY, AFTER PEG MODIFICATION: 0.125 NIH units of thrombin inhibited per μg PN1 (variant) | SPECIFIC ACTIVITY, BEFORE PEG MODIFICATION: 0.050 NIH units of thrombin inhibited per μg PN1 (variant) | REL TO WT, BEFORE PEG MODIFICATION: 0.10 | REL TO ACTIVITY BEFORE PEG, AFTER PEG MODIFICATION: 2.5 | REL TO WT, AFTER PEG MODIFICATION: 0.25

B6: G52C (conjugate, UniProt P07093 20-398, looked up, variant G52C)
Glia-derived nexin: SHFNPLSLEELGSNTGIQVFNQIVKSRPHDNIVISPHGIASVLGMLQLGADCRTKKQLAMVMRYGVNGVGKILKKINKAIVSKKNKDIVTVANAVFVKNASEIEVPFVTRNKDVFQCEVRNVNFEDPASACDSINAWVKNETRDMIDNLLSPDLIDGVLTRLVLVNAVYFKGLWKSRFQPENTKKRTFVAADGKSYQVPMLAQLSVFRCGSTSAPNDLWYNFIELPYHGESISMLIALPTESSTPLSAIIPHISTKTIDSWMSIMVPKRVQVILPKFTAVAQTDLKEPLKVLGITDMFDSSKANFAKITTGSENLHVSHILQKAKIEVSEDGTKASAATTAILIARSSPPWFIVDRPFLFFIRHNPTGAVLFMGQINKP
modifications: PEG
ACTIVITY, AFTER PEG MODIFICATION: 0.05 NIH units of thrombin inhibited per μg PN1 (variant) | SPECIFIC ACTIVITY, BEFORE PEG MODIFICATION: 0.024 NIH units of thrombin inhibited per μg PN1 (variant) | REL TO WT, BEFORE PEG MODIFICATION: 0.048 | REL TO ACTIVITY BEFORE PEG, AFTER PEG MODIFICATION: 2.1 | REL TO WT, AFTER PEG MODIFICATION: 0.1

B7: N85C (conjugate, UniProt P07093 20-398, looked up, variant N85C)
Glia-derived nexin: SHFNPLSLEELGSNTGIQVFNQIVKSRPHDNIVISPHGIASVLGMLQLGADGRTKKQLAMVMRYGVNGVGKILKKINKAIVSKKCKDIVTVANAVFVKNASEIEVPFVTRNKDVFQCEVRNVNFEDPASACDSINAWVKNETRDMIDNLLSPDLIDGVLTRLVLVNAVYFKGLWKSRFQPENTKKRTFVAADGKSYQVPMLAQLSVFRCGSTSAPNDLWYNFIELPYHGESISMLIALPTESSTPLSAIIPHISTKTIDSWMSIMVPKRVQVILPKFTAVAQTDLKEPLKVLGITDMFDSSKANFAKITTGSENLHVSHILQKAKIEVSEDGTKASAATTAILIARSSPPWFIVDRPFLFFIRHNPTGAVLFMGQINKP
modifications: PEG
ACTIVITY, AFTER PEG MODIFICATION: 0.040 NIH units of thrombin inhibited per μg PN1 (variant) | SPECIFIC ACTIVITY, BEFORE PEG MODIFICATION: 0.033 NIH units of thrombin inhibited per μg PN1 (variant) | REL TO WT, BEFORE PEG MODIFICATION: 0.066 | REL TO ACTIVITY BEFORE PEG, AFTER PEG MODIFICATION: 1.2 | REL TO WT, AFTER PEG MODIFICATION: 0.080

B8: N99C (conjugate, UniProt P07093 20-398, looked up, variant N99C)
Glia-derived nexin: SHFNPLSLEELGSNTGIQVFNQIVKSRPHDNIVISPHGIASVLGMLQLGADGRTKKQLAMVMRYGVNGVGKILKKINKAIVSKKNKDIVTVANAVFVKCASEIEVPFVTRNKDVFQCEVRNVNFEDPASACDSINAWVKNETRDMIDNLLSPDLIDGVLTRLVLVNAVYFKGLWKSRFQPENTKKRTFVAADGKSYQVPMLAQLSVFRCGSTSAPNDLWYNFIELPYHGESISMLIALPTESSTPLSAIIPHISTKTIDSWMSIMVPKRVQVILPKFTAVAQTDLKEPLKVLGITDMFDSSKANFAKITTGSENLHVSHILQKAKIEVSEDGTKASAATTAILIARSSPPWFIVDRPFLFFIRHNPTGAVLFMGQINKP
modifications: PEG
ACTIVITY, AFTER PEG MODIFICATION: 0.50 NIH units of thrombin inhibited per μg PN1 (variant) | SPECIFIC ACTIVITY, BEFORE PEG MODIFICATION: 0.20 NIH units of thrombin inhibited per μg PN1 (variant) | REL TO WT, BEFORE PEG MODIFICATION: 0.40 | REL TO ACTIVITY BEFORE PEG, AFTER PEG MODIFICATION: 2.5 | REL TO WT, AFTER PEG MODIFICATION: 1.0

B9: S1C (conjugate, UniProt P07093 20-398, looked up, variant S1C)
Glia-derived nexin: CHFNPLSLEELGSNTGIQVFNQIVKSRPHDNIVISPHGIASVLGMLQLGADGRTKKQLAMVMRYGVNGVGKILKKINKAIVSKKNKDIVTVANAVFVKNASEIEVPFVTRNKDVFQCEVRNVNFEDPASACDSINAWVKNETRDMIDNLLSPDLIDGVLTRLVLVNAVYFKGLWKSRFQPENTKKRTFVAADGKSYQVPMLAQLSVFRCGSTSAPNDLWYNFIELPYHGESISMLIALPTESSTPLSAIIPHISTKTIDSWMSIMVPKRVQVILPKFTAVAQTDLKEPLKVLGITDMFDSSKANFAKITTGSENLHVSHILQKAKIEVSEDGTKASAATTAILIARSSPPWFIVDRPFLFFIRHNPTGAVLFMGQINKP
modifications: PEG
ACTIVITY, AFTER PEG MODIFICATION: 0.25 NIH units of thrombin inhibited per μg PN1 (variant) | SPECIFIC ACTIVITY, BEFORE PEG MODIFICATION: 0.10 NIH units of thrombin inhibited per μg PN1 (variant) | REL TO WT, BEFORE PEG MODIFICATION: 0.20 | REL TO ACTIVITY BEFORE PEG, AFTER PEG MODIFICATION: 2.5 | REL TO WT, AFTER PEG MODIFICATION: 0.50
